This is an account of results in paper PMC4017622.

Like-named read-outs stand apart in the source and are kept apart here.

The target of data set [1] is T1, Pf-SSB (wild type, lacks apicoplast localization signal) (Plasmodium falciparum 3D7, UniProt Q8I415 77-284). Briefly: Trp fluorescence quenching titration.
In data set [2] the target is Pf-SSB crystallized form (Plasmodium falciparum 3D7, UniProt Q8I415 77-194). Briefly: X-ray crystallography.
Data set [3] concerns the target T1, Pf-SSB (wild type, lacks apicoplast …). Briefly: Trp fluorescence quenching titration. The source holds these as a separate data set.

B1: (dT)70 (ssDNA)
DNA: TTTTTTTTTTTTTTTTTTTTTTTTTTTTTTTTTTTTTTTTTTTTTTTTTTTTTTTTTTTTTTTTTTTTTT
As for B1, in data set [1], the binding result is recorded as “binds”.

With TTTTTTTTTTTTTTTTTTTTTTTTTTTTTTTTTTT (ssDNA) [(dT)35], the binding result in data set [2] and in data set [3] was “binds” in each case.
